Experimental data taken from patent US7192720.

What was measured:
[1] = molecular target: soluble rhTNFR-1 extracellular domain protein (human) (UniProt P19438); experiment: Western blot of soluble hTNFR probed with AF225 pre-mixed with 1:10 BAF225-3 : wild type T7 phage; plaque lift of recovered phage with AF225
[2] = molecular target: soluble rhTNFR-1 extracellular domain protein (human) (UniProt P19438); experiment: Western blot of soluble hTNFR probed with AF225 pre-mixed with 1:10 BAF225-3 : wild type T7 phage; phage eluted from excised bands and titered

UniProt P19438, sequence (P19438 30-211 limits assumed): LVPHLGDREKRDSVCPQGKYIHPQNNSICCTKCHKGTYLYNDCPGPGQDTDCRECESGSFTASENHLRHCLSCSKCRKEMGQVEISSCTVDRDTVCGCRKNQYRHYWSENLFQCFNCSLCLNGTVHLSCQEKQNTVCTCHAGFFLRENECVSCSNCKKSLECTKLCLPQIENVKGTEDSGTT

“goat anti-hTNFR polyclonal antibody (AF225)” was tested, and the enrichment of target phage relative to negative phage [1] was 190 fold, the percent of phage recovered from the TNFR band that were target phage [1] was 95% and the fold more phage recovered from the TNFR band than from the negative control [2] was 100 fold.
